Tests used:
2×S5P CTD diheptapeptide = experiment: fluorescence polarisation; fluorescence anisotropy; 90 nM labelled peptide (Atto-488 on CTD peptides, FAM on NCoR and FMR1 peptides) titrated with increasing concentrations of SPOC domain; 20 °C; 25 mM Tris-Cl pH 7.4, 25 mM NaCl, 1 mM DTT; three independent dilution series
[1] = biological target: WTAP peptide (first 19 N-terminal amino acids) phosphorylated at S14 (UniProt Q15007); experiment: as above

Chain of SHARP SPOC (3496–3664 aa) (Q96T58 3496-3664): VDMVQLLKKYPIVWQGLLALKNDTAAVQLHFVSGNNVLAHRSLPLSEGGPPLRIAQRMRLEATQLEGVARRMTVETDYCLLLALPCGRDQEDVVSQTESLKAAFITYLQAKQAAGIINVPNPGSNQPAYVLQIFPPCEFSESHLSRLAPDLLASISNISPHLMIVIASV

| Kd (2×S5P CTD diheptapeptide) [µM] | Kd [1] [µM] | Substance |
| --- | --- | --- |
| 20.6 | – | SHARP SPOC (3496–3664 aa) (from UniProt Q96T58 3496-3664) (domain or fragment) |
| – | 21.5 | RBM15 SPOC (775–960 aa) (from UniProt Q96T37 775-960) (domain or fragment) |

Reference: article PMC9834408, “The SPOC domain is a phosphoserine binding module that bridges transcription machinery with co- and post-transcriptional regulators” (Nature Communications, 2023)
